We go through 5 molecules from patent US20160362487A1 (Regeneron, published 2016).

The t½ is the time needed for the level to fall by half in the phase considered. The term Kd denotes the constant that tells how readily two partners part at equilibrium. The low end stands for higher affinity, the high end for lower affinity. A word on the koff: it is the first-order rate constant of dissociation.

Numbering of substitutions follows the chain as printed. Numbers in names are those of the source. A value given as a limit tells only on which side of the number the result lay.

Assay [1] has as its target T1, human IL-33 (R&D Systems, #3625-IL-010/CF) (human, UniProt O95760 112-270).
T1 construct: Commercial recombinant protein; also called hIL-33; interleukin-33
T1 sequence (looked up): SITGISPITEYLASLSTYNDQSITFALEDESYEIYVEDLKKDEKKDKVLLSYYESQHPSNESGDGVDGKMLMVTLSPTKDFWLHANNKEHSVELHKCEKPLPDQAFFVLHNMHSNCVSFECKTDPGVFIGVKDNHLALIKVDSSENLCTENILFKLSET
As to the kind of experiment: BLI; hIL-33 pre-mixed with mAb-2 Isotype control 2. The protocol: Binding competition between a panel of different anti-IL-33 monoclonal antibodies was determined using a real time, label-free bio-layer interferometry assay on an Octet® HTX biosensor (ForteBio, A Division of Pall Life Sciences). The experiment was performed at 25° C. using a buffer of 0.01M HEPES pH7.4, 0.15M NaCl, 0.05% v/v Surfactant Tween-20, and 0.1 mg/ml BSA (HBS-ET kinetics buffer) with the plate shaking at a speed of 1000 rpm. To assess whether two antibodies were able to compete with one another for binding to human IL-33, a pre-mix assay format was used where 100 nM of human IL-33 (R&D Systems; #3625-IL-010/CF) was pre-mixed with 500 nM of different anti-IL-33 monoclonal antibodies (subsequently referred to as mAb-2) for at least 2 hours prior to running the binding competition assay. […] Following the capture step, unoccupied anti-mouse Fc polyclonal antibody and anti-human Fc polyclonal antibody on the Octet biosensors were saturated by submerging them for 4 minutes into wells containing 200 μg/mL of a non-specific monoclonal antibody with a mouse Fc or with a human Fc, respectively. Finally, the Octet biosensors were immersed for 4 minutes into wells containing the pre-mixed samples of 100 nM of human IL-33 and 500 nM of mAb-2. At the end of each cycle, the non-covalently captured anti-IL-33 antibodies along with the bound pre-complex of human IL-33 and mAb-2 were removed from the biosensors using three alternate 20 second immersions into 10 mM HCl followed by submerging into HBS-ET kinetics buffer. The biosensors were washed in HBS-ET kinetics buffer in between every step of the experiment. The real-time binding response was monitored during the binding events, and the binding response (in units of nm) at the end of every step was recorded.
In general terms: In BLI a coated tip is dipped into the sample, and binding shifts an interference pattern.

Assay [2] concerns the target T1, human IL-33 (R&D Systems, …). As to the kind of experiment: cell-based or functional assay.
For assay [3] the target is unchanged. Nature of the assay: cell-based or functional assay. This is another data set of the same source.
Assay [4] concerns the target T2, pre-formed complex of hIL-33 and captured hST2-MMH (human, UniProt O95760 112-270).
T2 construct: Ligand-receptor complex on the sensor: hST2-MMH captured by anti-myc mAb and saturated with 100 nM hIL-33; also called hIL-33 pre-complexed with hST2-MMH
As to the kind of experiment: SPR Biacore T-200, 25C. As to the method:
The ability of anti-IL-33 antibodies to bind to a pre-formed complex of IL-33 with ST2 was tested using Biacore T-200 instrument equipped with a real-time surface plasmon resonance biosensor. The experiment was performed at 25° C. with a running buffer composed of 0.01M HEPES pH 7.4, 0.15M NaCl, 3 mM EDTA, and 0.05% v/v Surfactant Tween-20 (HBS-ET). […] The captured hST2-MMH surface was then saturated by injecting 100 nM of human IL-33 (hIL-33; R&D Systems, #3625-IL-010/CF) for 3 minutes followed by a 3 minute injection of a 100 nM solution of the anti-IL-33 monoclonal antibody. The real-time binding response was monitored during the entire course of the experiment, and the observed binding response at 3 minutes after injection of anti-IL-33 antibody to the pre-formed complex of hIL-33 and captured hST2-MMH was recorded and tabulated and shown in Table 7. No non-specific binding of anti-IL-33 monoclonal antibody to the anti-myc tag capture surface was observed.
In general terms: SPR reads the build-up and loss of mass on a sensor chip optically.

Assay [5] concerns the target T1, human IL-33 (R&D Systems, …). As to the kind of experiment: SPR 25C pH7.4, mAb captured; lower limit, kd fixed. The protocol:
(§1) Equilibrium dissociation constants (KD values) for IL-33 binding to purified anti-IL-33 monoclonal antibodies were determined using a real-time surface plasmon resonance biosensor using a Biacore 4000 instrument. The Biacore sensor surface was first derivatized by amine coupling with either a polyclonal rabbit anti-mouse antibody (GE, # BR-1008-38) or with a monoclonal mouse anti-human Fc antibody (GE, # BR-1008-39) to capture anti-IL-33 monoclonal antibodies expressed with mouse or with human IgG4 constant regions, respectively. All Biacore binding studies were performed in 0.01M ADA pH 7.4, 0.15M NaCl, 3 mM EDTA, and 0.05% v/v Surfactant Tween-20 (ABS-ET running buffer). […] Association of either hIL-33 or MfIL-33-6His to the captured monoclonal antibody was monitored for 4 minutes and their dissociation in ABS-ET running buffer was monitored for 10 minutes. […] To achieve this, association of either hIL-33 or MfIL-33-6His to the captured monoclonal antibody was monitored for 4 minutes in ABS-ET running buffer. Following a 30 second dissociation of either hIL-33 or MfIL-33-6His in ABS-ET running buffer, ABS-ET pH6 buffer was injected for 3 minutes, and the analyte dissociation under the low-pH conditions was measured. […] Binding dissociation equilibrium constants (KD) and dissociative half-lives (t½) were calculated from the kinetic rate constants as: […]

Assay [6] has the same target. Nature of the assay: SPR 25C pH7.4, mAb captured; upper limit, kd fixed. The protocol: as §1
Assay [7] has the same target. As to the kind of experiment: SPR 25C pH7.4, mAb captured; no dissociation seen, kd fixed. The protocol:
as §1

B1: H4H9659P (antibody, human IgG4, V domains shown)
VH: QVQLVQSGAEVKKPGASVKVSCKASGYTFNSYGISWVRQAPGQGLEWMGWISSHNGNSHYVQKFQGRVSMTTDTSTSTAYMELRSLRSDDTAVYYCARHSYTTSWYGGFDYWGQGTLVTVSS
VL: DIQMTQSPSSVSASVGDRVTITCRASQGFSSWLAWYQQKPGKAPQLLIYAASSLQSGVPSRFSGSGSGSDFTLTISSLQPEDFATYYCQQANSFPLTFGGGTKVEIK
notes: Human IgG4 Fc (H4H)
As to B1, the “mAb-1 Binding to the Pre-complex of mAb-2 & hIL-33” value (“mAb-1 Binding to the Pre-complex” for short) in assay [1] turned out to be 0.09 nm. In assay [2], the “IC50, blocking of human basophil degranulation induced by 100 pM human IL-33, donor 655687” value is 5.79e-10 M and the “IC50, blocking of human basophil degranulation induced by 100 pM human IL-33, donor 655688” value was 4.47e-10 M. Moreover, in assay [3], the “IC50, blocking of IFN-γ release from human PBMC induced by 260 pM hIL-33, donor #603486” value (shortened to “IC50, blocking of IFN-γ release … donor #603486”) worked out at 1.25e-09 M and the “IC50, blocking of IFN-γ release from human PBMC induced by 260 pM hIL-33, donor #603487” value (“IC50, blocking of IFN-γ release … donor #603487” below) amounted to 2.71e-09 M.

B2: H4H9662P (antibody, V domains shown)
VH: EVQLVESGGGLVQPGGSLRLSCAASGFTFSSYALTWVRQAPGKGLEWVSFISGSGGRPFYADSVKGRFTISRDNSKNMLYLQMNSLRAEDTAIYYCAKSLYTTSWYGGFDSWGQGTLVTVSS
VL: B1 VL with F29V, S30V, Q45K, S69T, A91S, L96F, F98L, G100P, E105D
notes: Human IgG4 Fc (H4H)
Regarding B2, the binding result in assay [4] was “no binding (tested: 100 nM)”. In addition, in assay [1], the “mAb-1 Binding to the Pre-complex” value turned out to be 0.11 nm. Besides, in assay [3], the “IC50, blocking of IFN-γ release … donor #603486” value is 9.64e-10 M and the “IC50, blocking of IFN-γ release … donor #603487” value worked out at 3.02e-09 M.

B3: H4H9675P (antibody, human IgG4, V domains shown)
VH: EVQLVESGGNLEQPGGSLRLSCTASGFTFSRSAMNWVRRAPGKGLEWVSGISGSGGRTYYADSVKGRFTISRDNSKNTLYLQMNSLSAEDTAAYYCAKDSYTTSWYGGMDVWGHGTTVTVSS
VL: B1 VL with F29I, S30F, Q45K, S69T, T85I, F94V, L96I, G100Q, K103R, V104L
notes: Human IgG4 Fc (H4H)
For the molecule B3, the “mAb-1 Binding to the Pre-complex” value in assay [1] worked out at 0.11 nm. In addition, in assay [2], the “IC50, blocking of human basophil degranulation induced by 100 pM human IL-33, donor 655687” value came to 1.33e-10 M and the “IC50, blocking of human basophil degranulation induced by 100 pM human IL-33, donor 655688” value stood at 9.71e-11 M. In assay [3], the “IC50, blocking of IFN-γ release … donor #603486” value was found to be 1.75e-10 M and the “IC50, blocking of IFN-γ release … donor #603487” value amounted to 4.71e-10 M.

B4: H4H9665P (antibody, human IgG4, V domains shown)
VH: EVQLVESGGGLVQPGGSLRLSCAASGFTFSNYAMTWVRQAPGKGLEWVSTISGSGDNTYYADSVQGRFTISRGHSKNTLYLQMNSLRAEDTAVYYCAKPTYSRSWYGAFDFWGQGTMVTVSS
VL: B1 VL with F29I, S53R, S63W, S69T, S93N, L96F, G100P, E105D
notes: Human IgG4 Fc (H4H)
Turning to B4, the binding result in assay [4] is given as “no binding (tested: 100 nM)”. In assay [1], the “mAb-1 Binding to the Pre-complex” value was 0.09 nm. In assay [3], the “IC50, blocking of IFN-γ release … donor #603486” value came out at 1.04e-08 M and the “IC50, blocking of IFN-γ release … donor #603487” value is 2.34e-08 M.

B5: H1M9566N (antibody, mouse IgG1, V domains shown)
VH: EVQLLESGGDLVQPGGSLRLSCAASGFTFSSYAMSWVRQAPGKGLEWVSVISGSGSSTDYADSVKGRFTISRDNSRDTLHLQMNSLRAEDTAVYYCAKTFYYFYGLDVWGQGTTVTVSS
VL: DIQMTQSPSSLSASLRDRVTITCRASQGISNYLAWYQQKPGKVPKVLIYAASTLQSGVPSRFSGSGSGTVFTLTISSLQTEDVATYYCQKYSSAPFTFGPGTKVDIK
notes: Human variable domains, mouse IgG1 Fc (H1M)
Regarding B5, the t½ in assay [5] is ≥ 19.2 h. In addition, the “mAb-1 Binding to the Pre-complex” value in assay [1] worked out at 0.1 nm. For the same molecule, the Kd in assay [6] was ≤ 0.0788 nM. Also, the dissociation rate constant (koff) in assay [7] was ≤ 1e-05 s⁻¹.
